US20250210128A1 (ECOLE POLYTECHNIQUE FEDERALE DE LAUSANNE EPFL, published 2025)
No end group written: not given here.

Columns and labels:
Assay in all cases: cell-based or functional assay
Cdes2 CXCR4 design = Cdes2 CXCR4 design (human)
[1] = target: Ldes CXCR4 (library-selected combination receptor variant) (human)
[2] = target: CLdes CXCR4 sensor (Cdes2 design combined with H113N) (human)

Binder: KPVSLSYRCPCRFFESH-NH2 (cysteine pairing not given here) [CXCL12 1-17 peptide, wild-type (17 N-terminal residues of CXCL12)]
- potency in G-coupling (Gi BRET) (Cdes2 CXCR4 design): 3.2 fold over WT
- potency in calcium mobilization (Cdes2 CXCR4 design): 3.1 fold over WT
- Gi potency [1]: ~11 fold over CXCR4 WT scaffold
- Gi response (potency/sensitivity) [2]: > 9 fold over WT
